Data set [1] has as its system HeLa Kyoto. Description: solubility in G1/S (NP-40 vs SDS abundance) (log2 ratio); higher = more soluble. As to conditions: cell cycle stage: G1/S.
In data set [2] the test system is HeLa Kyoto. Description: melting temperature (median over replicates), in situ; higher = more thermally stable.
Data set [3] concerns HeLa Kyoto. Description: solubility change mitosis vs G1/S (difference of NP-40 vs SDS log2 ratios) (log2 ratio difference); higher = more soluble in mitosis.
Data set [4] concerns HeLa Kyoto. Briefly: thermal stability score vs G1/S (z-score of summed log2 fold changes over temperatures); higher = more thermally stable than in G1/S.
[5] abbreviates: cell cycle stage: early G1 (4.5 h after nocodazole release).
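Throughout, for melting temperature (median over replicates), in situ: HeLa Kyoto cells synchronized by double thymidine or nocodazole block, proteins quantified by TMT10plex mass spectrometry, three independent biological replicates.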
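Throughout, for solubility change mitosis vs G1/S (difference of NP-40 vs SDS log2 ratios): synchronized HeLa Kyoto cells (double thymidine block for G1/S, nocodazole release for mitosis), protein amounts in NP-40 versus SDS lysates quantified by mass spectrometry, three biological replicates.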
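Throughout, for solubility in G1/S (NP-40 vs SDS abundance): HeLa Kyoto cells arrested at G1/S by double thymidine block, proteins quantified by TMT10plex mass spectrometry in mild NP-40 versus SDS extracts, three biological replicates.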
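Throughout, for thermal stability score vs G1/S (z-score of summed log2 fold changes over temperatures): synchronized HeLa Kyoto cells, proteins quantified by TMT10plex mass spectrometry, three biological replicates, mitosis taken 0.5 h after nocodazole release, G1/S directly after double thymidine block.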

On to “MEKRETFVQAVSKELVGEFLQFVQLDKEASDPFSLNELLDELSRKQKEELWQRLKNLLTDVLLESPVDGWQVVEAQGEDNMETEHGSKMRKSIEIIYAITSVILASVSVINESENYEALLECVIILNGILYALPESERKLQSSIQDLCVTWWEKGLPAKEDTGKTAFVMLLRRSLETKTGADVCRLWRIHQALYCFDYDLEESGEIKDMLLECFININYIKKEEGRRFLSCLFNWNINFIKMIHGTIKNQLQGLQKSLMVYIAEIYFRAWKKASGKILEAIENDCIQDFMFHGIHLPRRSPVHSKVREVLSYFHHQKKVRQGVEEMLYRLYKPILWRGLKARNSEVRSNAALLFVEAFPIRDPNLHAIEMDSEIQKQFEELYSLLEDPYPMVRSTGILGVCKITSKYWEMMPPTILIDLLKKVTGELAFDTSSADVRCSVFKCLPMILDNKLSHPLLEQLLPALRYSLHDNSEKVRVAFVDMLLKIKAVRAAKFWKICPMEHILVRLETDSRPVSRRLVSLIFNSFLPVNQPEEVWCERCVTLVQMNHAAARRFYQYAHEHTACTNIAKLIHVIRHCLNACIQRAVREPPEDEEEEDGREKENVTVLDKTLSVNDVACMAGLLEIIVILWKSIDRSMENNKEAKLYTINKFASVLPEYLKVFKDDRCKIPLFMLMSFMPASAVPPFSCGVISTLRSREEGAVDKSYCTLLDCLCSWGQVGHILELVDNWLPTEHAQAKSNTASKGRVQIHDTRPVKPELALVYIEYLLTHPKNRECLLSAPRKKLNHLLKALETSKADLESLLQTPGGKPRGFSEAAAPRAFGLHCRLSIHLQHKFCSEGKVYLSMLEDTGFWLESKILSFIQDQEEDYLKLHRVIYQQIIQTYLTVCKDVVMVGLGDHQFQMQLLQRSLGIMQTVKGFFYVSLLLDILKEITGSSLIQKTDSDEEVAMLLDTVQKVFQKMLECIARSFRKQPEEGLRLLYSVQRPLHEFITAVQSRHTDTPVHRGVLSTLIAGPVVEISHQLRKVSDVEELTPPEHLSDLPPFSRCLIGIIIKSSNVVRSFLDELKACVASNDIEGIVCLTAAVHIILVINAGKHKSSKVREVAATVHRKLKTFMEITLEEDSIERFLYESSSRTLGELLNS [NCAPG2]”, for which the “solubility in G1/S (log2)” value in the data set with HeLa Kyoto [1] was -0.313. Besides, the melting temperature with HeLa Kyoto [2] (cell cycle stage: G1/S) is 49.1 °C; in the data set with HeLa Kyoto [2] (cell cycle stage: mitosis), 48.1 °C. In addition, the “solubility change mitosis (log2)” value in the data set on HeLa Kyoto [3] is -0.0274. The values for the thermal stability score in the data set on HeLa Kyoto [4] (setting [5]) and in the data set on HeLa Kyoto [4] (cell cycle stage: mitosis) were 0.33 and 0.687, respectively.
On to “MEKSSSCESLGSQPAAARPPSVDSLSSASTSHSENSVHTKSASVVSSDSISTSADNFSPDLRVLRESNKLAEMEEPPLLPGENIKDMAKDVTYICPFTGAVRGTLTVTNYRLYFKSMERDPPFVLDASLGVINRVEKIGGASSRGENSYGLETVCKDIRNLRFAHKPEGRTRRSIFENLMKYAFPVSNNLPLFAFEYKEVFPENGWKLYDPLLEYRRQGIPNESWRITKINERYELCDTYPALLVVPANIPDEELKRVASFRSRGRIPVLSWIHPESQATITRCSQPMVGVSGKRSKEDEKYLQAIMDSNAQSHKIFIFDARPSVNAVANKAKGGGYESEDAYQNAELVFLDIHNIHVMRESLRKLKEIVYPNIEETHWLSNLESTHWLEHIKLILAGALRIADKVESGKTSVVVHCSDGWDRTAQLTSLAMLMLDGYYRTIRGFEVLVEKEWLSFGHRFQLRVGHGDKNHADADRSPVFLQFIDCVWQMTRQFPTAFEFNEYFLITILDHLYSCLFGTFLCNSEQQRGKENLPKRTVSLWSYINSQLEDFTNPLYGSYSNHVLYPVASMRHLELWVGYYIRWNPRMKPQEPIHNRYKELLAKRAELQKKVEELQREISNRSTSSSERASSPAQCVTPVQTVV [MTMR2]”, for which the “solubility in G1/S (log2)” value in the data set on HeLa Kyoto [1] was 0.0322. The results for the melting temperature with HeLa Kyoto [2] (cell cycle stage: G1/S) and with HeLa Kyoto [2] (cell cycle stage: mitosis) were 53.4 °C and 53 °C, respectively. Further, the “solubility change mitosis (log2)” value in the data set on HeLa Kyoto [3] is -0.12. Besides, the values for the thermal stability score in the data set on HeLa Kyoto [4] (setting [5]) and in the data set on HeLa Kyoto [4] (cell cycle stage: mitosis) were -1.45 and -1.51, respectively.
“MELCGLGLPRPPMLLALLLATLLAAMLALLTQVALVVQVAEAARAPSVSAKPGPALWPLPLLVKMTPNLLHLAPENFYISHSPNSTAGPSCTLLEEAFRRYHGYIFGFYKWHHEPAEFQAKTQVQQLLVSITLQSECDAFPNISSDESYTLLVKEPVAVLKANRVWGALRGLETFSQLVYQDSYGTFTINESTIIDSPRFSHRGILIDTSRHYLPVKIILKTLDAMAFNKFNVLHWHIVDDQSFPYQSITFPELSNKGSYSLSHVYTPNDVRMVIEYARLRGIRVLPEFDTPGHTLSWGKGQKDLLTPCYSRQNKLDSFGPINPTLNTTYSFLTTFFKEISEVFPDQFIHLGGDEVEFKCWESNPKIQDFMRQKGFGTDFKKLESFYIQKVLDIIATINKGSIVWQEVFDDKAKLAPGTIVEVWKDSAYPEELSRVTASGFPVILSAPWYLDLISYGQDWRKYYKVEPLDFGGTQKQKQLFIGGEACLWGEYVDATNLTPRLWPRASAVGERLWSSKDVRDMDDAYDRLTRHRCRMVERGIAAQPLYAGYCNHENM [HEXB]”: in the data set with HeLa Kyoto [1], the “solubility in G1/S (log2)” value stood at 0.38. The melting temperature in the data set on HeLa Kyoto [2] (cell cycle stage: G1/S) is 56.7 °C; in the data set with HeLa Kyoto [2] (cell cycle stage: mitosis), 58 °C. For the same sequence, in the data set on HeLa Kyoto [3], the “solubility change mitosis (log2)” value came to 0.0247. Also, the values for the thermal stability score with HeLa Kyoto [4] (setting [5]) and in the data set with HeLa Kyoto [4] (cell cycle stage: mitosis) were -1.76 and -0.878, respectively.
With “MELDSALEAPSQEDSNLSEELSHSAFGQAFSKILHCLARPEARRGNVKDAVLKDLGDLIEATEFDRLFEGTGARLRGMPETLGQVAKALEKYAAPSKEEEGGGDGHSEAAEKAAQVGLLFLKLLGKVETAKNSLVGPAWQTGLHHLAGPVYIFAITHSLEQPWTTPRSREVAREVLTSLLQVTECGSVAGFLHGENEDEKGRLSVILGLLKPDLYKESWKNNPAIKHVFSWTLQQVTRPWLSQHLERVLPASLVISDDYQTENKILGVHCLHHIVLNVPAADLLQYNRAQVLYHAISNHLYTPEHHLIQAVLLCLLDLFPILEKTLHWKGDGARPTTHCDEVLRLILTHMEPEHRLLLRRTYARNLPAFVNRLGILTVRHLKRLERVIIGYLEVYDGPEEEARLKILETLKLLMQHTWPRVSCRLVVLLKALLKLICDVARDPNLTPESVKSALLQEATDCLILLDRCSQGRVKGLLAKIPQSCEDRKVVNYIRKVQQVSEGAPYNGT [TTI2]”, the “solubility in G1/S (log2)” value with HeLa Kyoto [1] was found to be 0.208. Also, the values for the melting temperature in the data set on HeLa Kyoto [2] (cell cycle stage: G1/S) and in the data set with HeLa Kyoto [2] (cell cycle stage: mitosis) were 50.5 °C and 49.7 °C, respectively. Moreover, in the data set with HeLa Kyoto [3], the “solubility change mitosis (log2)” value is -0.201. In addition, the thermal stability score in the data set on HeLa Kyoto [4] (setting [5]) stood at 0.152; with HeLa Kyoto [4] (cell cycle stage: mitosis), 0.904.
As for “MELFLAGRRVLVTGAGKGIGRGTVQALHATGARVVAVSRTQADLDSLVRECPGIEPVCVDLGDWEATERALGSVGPVDLLVNNAAVALLQPFLEVTKEAFDRSFEVNLRAVIQVSQIVARGLIARGVPGAIVNVSSQCSQRAVTNHSVYCSTKGALDMLTKVMALELGPHKIRVNAVNPTVVMTSMGQATWSDPHKAKTMLNRIPLGKFAEVEHVVNAILFLLSDRSGMTTGSTLPVEGGFWAC [DCXR]”, the “solubility in G1/S (log2)” value in the data set with HeLa Kyoto [1] was found to be 0.282. The figures for the melting temperature in the data set on HeLa Kyoto [2] (cell cycle stage: G1/S) and with HeLa Kyoto [2] (cell cycle stage: mitosis) were 57.7 °C and 55.7 °C, respectively. Besides, the “solubility change mitosis (log2)” value with HeLa Kyoto [3] is -0.0268. The thermal stability score was -1.92 in the data set with HeLa Kyoto [4] (setting [5]) and -1.77 in the data set on HeLa Kyoto [4] (cell cycle stage: mitosis).

Values taken from the supplement of paper PMC5998384.
